Data reported in US11396668B2, “Methods of producing nor-opioid and nal-opioid benzylisoquinoline alkaloids” (priority 2016, dated 2022).
Numbering of substitutions follows the chain as printed.

Columns and labels:
[1] = tested on: tyrosine hydroxylase activity (wild-type RnTyrH); assay: L-DOPA and BH4 levels with antioxidant added to growth media of engineered yeast; format: cell-based; details: 2 mM in the media
Excerpt: A yeast strain containing the following mutations to central metabolism (as described in U.S. Provisional Patent Application Ser. No. 61/899,496): ARO4^FBR, ΔZWF1, and GPD-TKL1 promoter replacement and expressing four chromosomally integrated genes from R. norvegicus that generate the cosubstrate tetrahydrobiopterin (pyruvoyl tetrahydropterin synthase, PTPS; sepiapterin reductase, SepR; pterin 4a-carbinolamine dehydratase, PCD; dihydropteridine reductase, QDHPR) as well as wild-type RnTyrH from a low-copy plasmid under the control of the GPD promoter was grown in selective defined media (YNB) lacking tyrosine with 2% galactose and 2 mM ascorbic acid for 96 hours.
The production of L-DOPA was measured in the media via LC-MS/MS in MRM mode with the transition 198 m/z to 152 m/z. […] In addition, the concentration BH4 intermediates were measured with LC-MS/MS in MRM mode with the following transitions: B, 238 m/z to 178 m/z; BH2, 240 m/z to 165 m/z and BH4, 242 m/z to 166 m/z.
Accordingly, FIG. 11A illustrates addition of antioxidants to culture media that improves L-DOPA production by tyrosine hydroxylase in engineered yeast strains and (B) addition of antioxidants to culture media that increase BH4 levels, in accordance with embodiments of the invention. […] The production of L-DOPA was measured in the media via LC-MS/MS in MRM mode with the transition 198 m/z to 152 m/z. […]

[2] = tested on: L-DOPA production by tyrosine hydroxylase; assay: L-DOPA production with DHFR coexpressed with wild-type RnTyrH in engineered yeast; format: cell-based; details: YNB lacking tyrosine, 2% dextrose, 96 hours
Excerpt: Dihydrofolate reductase (DHFR) from R. norvegicus was yeast codon optimized, synthesized, and cloned into a low-copy plasmid under the control of a GPD promoter. DHFR was coexpressed with wild-type RnTyrH (low-copy plasmid with a GPD promoter) in a yeast strain containing the following mutations to central metabolism (as described in U.S. Provisional Patent Application Ser. No. 61/899,496): ARO4^FBR, ΔZWF1, and GPD-TKL1 promoter replacement. In addition, the strain expressed four chromosomally integrated genes from R. norvegicus that generate the cosubstrate tetrahydrobiopterin (pyruvoyl tetrahydropterin synthase, PTPS; sepiapterin reductase, SepR; pterin 4a-carbinolamine dehydratase, PCD; dihydropteridine reductase, QDHPR). The strains expressing DHFR and wild-type RnTyrH were grown in selective defined media (YNB) lacking tyrosine with 2% dextrose for 96 hours, and the production of L-DOPA was measured in the media via LC-MS/MS in MRM mode with the transition 198 m/z to 152 m/z. Expression of DHFR with wild-type RnTyrH increases L-DOPA production by 1.8-fold, as illustrated in FIG. 10. As such, FIG. 10 illustrates coexpression of dihydrofolate reductase (DHFR) that improves L-DOPA production by tyrosine hydroxylase in engineered yeast strains, in accordance with embodiments of the invention.

[3] = tested on: thebaine; assay: Thebaine N-demethylase activity of BM3 variants in yeast; format: cell-based, yeast strains (CEN.PK2); details: 100 μM thebaine, 20 hours, buffers pH 5.0-8.5
Protocol: (§1) Specifically, BM3 variants 4H9, 7A1, and 8F11 (listed in Table 6) were integrated into the genomes of individual yeast strains (CEN.PK2) and incubated in citric acid-phosphate buffer (pH 5.0, 6.0, 7.0) and Tris-HCl buffer (pH 7.5, 8.0, 8.5) with 100 μM thebaine for 20 hours. A genetic construct which was identical except for the exclusion of the BM3 open reading frame was integrated to generate a no-enzyme control strain. […] The northebaine generated by the yeast strains was quantified by liquid chromatography mass spectrometry. The mass spectrum of northebaine (m/z 298) lacked the m/z 58 product ion consistent with a demethylated nitrogen (see FIG. 27C).
as §1, with “FIG. 27A, FIG. 27B and FIG. 27C illustrate the functional expression of BM3 variants, in accordance with embodiments of the invention. […] FIG. 27B illustrates the functional expression of BM3 variants with thebaine N-demethylase activity in yeast.” for “Specifically,”, “8F11” for “8F11 (listed in Table 6)”

[4] = tested on: oxycodone; assay: Oxycodone 3-O-demethylase activity of CODM in crude yeast cell lysate; format: biochemical, yeast strain W303; details: 0.1 mM oxycodone, 10 mM 2-oxoglutarate, 30° C., 3 h, LC-MS
Protocol: FIG. 29 illustrates the functional expression of CODM, in accordance with embodiments of the invention. In particular, FIG. 29 illustrates the functional expression of CODM with oxycodone 3-O-demethylase activity in yeast. The yeast codon-optimized CODM gene was integrated into the genome of yeast strain W303 and cultured in synthetic complete media for 16 hours. The parent W303 strain was also cultured in synthetic complete media for 16 hours as a no-enzyme control. The cells were pelleted and washed with 1 mL breaking buffer (100 mM Tris-HCl pH 7.5, 10% glycerol, 14 mM 2-mercaptoethanol, lx protease inhibitor). Cells were resuspended in 200 μL breaking buffer and lysed by glass bead disruption. The crude cell lysates were incubated with 10 mM ascorbic acid, 0.5 mM iron(II) sulfate, 0.1 mM oxycodone as substrate and 10 mM 2-oxoglutarate as cosubstrate in a total volume of 100 μL. 4 mM DTT was also added as a reducing agent to keep iron in the Fe^2+ state. The reaction was incubated at 30° C. for 3 h and quenched by diluting it 1:1 in ethanol with 0.1% acetic acid. […] The mass-charge ratio (m/z 302), retention time, and mass spectrum of oxymorphone produced by the yeast strain matched that of a purchased oxymorphone standard (see FIG. 29).

Molecule: O=C1O[C@H]([C@@H](O)CO)C(O)=C1O [ascorbic acid]
- improvement of L-DOPA production with wild-type RnTyrH ([1]; 96 hours): 1.8 fold
- BH4 in the media ([1]; LC-MS/MS): increases BH4 in the media

B1: DHFR: Dihydrofolate reductase from R. norvegicus, yeast codon optimized, expressed from low-copy plasmid (protein, UniProt Q920D2 1-187, looked up)
Dihydrofolate reductase: MVRPLNCIVAVSQNMGIGKNGDLPWPLLRNEFKYFQRMTTTSSVEGKQNLVIMGRKTWFSIPEKNRPLKDRINIVLSRELKEPPQGAHFLAKSLDDALKLIEQPELASKVDMVWVVGGSSVYQEAMNQPGHLRLFVTRIMQEFESDTFFPEIDLEKYKLLPEYPGVLSEIQEEKGIKYKFEVYEKKD
- increase of L-DOPA production [2]: 1.8 fold

B2: 4H9: BM3 variant (Bacillus megaterium cytochrome P450) listed in Table 6 (protein)
chain: MTIKEMPQPKTFGELKNLPLLNTDKPVQALMKIADELGEIFKFEAPGRVTRYLSSQRLIKEACDESRFDKNLSQALKFARDFAGDGLVTSWTHEKNWKKAHNILLPSFSQQAMKGYHAMMVDIAVQLVQKWERLNADEHIEVSEDMTRLTLDTIGLCGFNYRFNSFYRDQPHPFIISMVRAADEVMNKLQRANPDDPAYDENKRQFQEDIKVMNDLVDKIIADRKARGEQSDDLLTQMLNGKDPETGEPLDDGNIRYQIIAFLIAGHETTSGLLSFALYFLVKNPHVLQKVAEEAARVLVDPVPSYKQVKQLKYVGMVLNEALRLWPTAPAFSLYAKEDTVLGGEYPLEKGDEVMVLIPQLHRDKTVWGDDVEEFRPERFENPSAIPQHAFKPFGNGQRACIGQQFALHEATLVLGMMLKHFDFEDHTNYELDIKETATLKPKGFVVKAKSKKIPLGGIPSPSTEQSAKKVRKKAENAHNTPLLVLYGSNMGTAEGTARDLADIAMSKGFAPQVATLDSHAGNLPREGAVLIVTASYNGHPPDNAKQFVDWLDQASADEVKGVRYSVFGCGDKNWATTYQKVPAFIDETLAAKGAENIADRGEADASDDFEGTYEEWREHMWSDVAAYFNLDIENSEDNKSTLSLQFVDSAADMPLAKMHGAFSTNVVASKELQQPGSARSTRHLEIELPKEASYQEGDHLGVIPRNYEGIVNRVTARFGLDASQQIRLEAEEEKLAHLPLAKTVSVEELLQYVELQDPVTRTQLRAMAAKTVCPPHKVELEALLEKQAYKEQVLAKRLTMLELLEKYPACEMKFSEFIALLPSIRPRYYSISSSPRVDEKQASITVSVVSGEAWSGYGEYKGIASNYLAELQEGDTITCFISTPQSEFTLPKDPETPLIMVGPGTGVAPFRGFVQARKQLKEQGQSLGEAHLYFGCRSPHEDYLYQEELENAQSEGIITLHTAFSRMPNQPKTYVQHVMEQDGKKLIELLDQGAHFYICGDGSQMAPAVEATLMKSYADVHQVSEADARLWLQQLEEKGRYAKDVWAG
- northebaine production from thebaine (N-demethylation) [3]: produced northebaine at all tested pH levels above 7.0

B3: 7A1: BM3 variant (Bacillus megaterium cytochrome P450) listed in Table 6 (protein)
chain: B2 chain with L76A, M178A, A438L
- northebaine production from thebaine (N-demethylation) [3]: produced northebaine at all tested pH levels above 7.0

B4: 8F11: BM3 variant (Bacillus megaterium cytochrome P450) listed in Table 6 (protein)
chain: B2 chain with A182L, A261T
- northebaine production from thebaine (N-demethylation) [3]: produced northebaine at all tested pH levels above 7.0

B5: CODM: codeine O-demethylase, yeast codon-optimized gene integrated into yeast strain W303 (protein, listed as Papaver somniferum)
chain: METPILIKLGNGLSIPSVQELAKLTLAEIPSRYTCTGESPLNNIGASVTDDETVPVIDLQNLLSPEPVVGKLELDKLHSACKEWGFFQLVNHGVDALLMDNIKSEIKGFFNLPMNEKTKYGQQDGDFEGFGQPYIESEDQRLDWTEVFSMLSLPLHLRKPHLFPELPLPFRETLESYLSKMKKLSTVVFEMLEKSLQLVEIKGMTDLFEDGLQTMRMNYYPPCPRPELVLGLTSHSDFSGLTILLQLNEVEGLQIRKEERWISIKPLPDAFIVNVGDILEIMTNGIYRSVEHRAVVNSTKERLSIATFHDSKLESEIGPISSLVTPETPALFKRGRYEDILKENLSRKLDGKSFLDYMRM
- oxymorphone generated from oxycodone (3-O-demethylation) [4]: detected by LC-MS
